Test results as given in patent US6407207B1, “Cloned and expressed human bradykinin BK-2 receptor” (Merck & Co., Inc., priority 1992, dated 2002).
Where a SMILES comes first, the peptide text is derived from it. Where no end group is shown, it is not given here. [ ]: non-standard residue; d: D form. Hyp = O=C(O)[C@@H]1C[C@@H](O)CN1; 2Thi = N[C@@H](Cc1cccs1)C(=O)O

Legend:
human BK-2 receptor = target: T1, human BK-2 receptor (Homo sapiens, UniProt P30411); assay: Competition binding against 100 pM [3H]BK, membranes of COS-7 cells expressing the cloned receptor; conditions: for Inhibition of BK binding: at a concentration of 10 uM; for IC50: competition with [3H]BK, read-out: IC50, displacement of [3H]BK binding
T1 construct: permitted the construction of a cDNA clone encoding a full length BK-2 receptor from the cleavage fragments of the two clones; expressed in transfected cells; host or cells: COS-7 cells, vector pcDNA I-Neo, membranes
T1 sequence (P30411 1-364 isoform P30411-2): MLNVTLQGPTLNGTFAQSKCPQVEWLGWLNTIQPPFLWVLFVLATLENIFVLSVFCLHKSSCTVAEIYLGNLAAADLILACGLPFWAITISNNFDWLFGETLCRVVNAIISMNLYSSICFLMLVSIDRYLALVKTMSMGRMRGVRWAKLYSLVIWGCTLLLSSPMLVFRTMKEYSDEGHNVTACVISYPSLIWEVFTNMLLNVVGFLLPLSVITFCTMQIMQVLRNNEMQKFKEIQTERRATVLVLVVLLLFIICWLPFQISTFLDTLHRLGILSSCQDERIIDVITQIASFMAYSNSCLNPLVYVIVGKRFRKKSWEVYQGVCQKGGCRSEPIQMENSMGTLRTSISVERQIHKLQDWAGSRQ
Method: (§1) Cells are then harvested after 72 hours and the membranes containing the expressed receptor protein are prepared by scraping the cells in phosphate buffered saline solution and centrifuging for ten minutes at 500×g. The cell pellet is then resuspended and homogenized with a Polytron in 20 mM N-tris(hydroxymethyl)methyl-2-aminoethane sulfonic acid (TES, pH 6.8 at room temperature) buffer containing 1 mM 1,10 phenanthroline. The homogenate is then centrifuged for ten minutes at […]. The final membrane pellet is resuspended in assay buffer (TES plus 0.1% protease free bovine serum albumin, 5 uM MK-422 (enalaprilat; Gross et al., J. Pharmacol. and Exper. Ther. 216, 552-557 (1981)) and 140 ug/ml bacitracin using a motor-driven teflon-glass tissue homogenizer. Protein determination are performed by the method of Bradford using bovine IgG as the standard. See Bradford, M. A. Anal. Biochem. 72, 248-254 (1976).
Binding assays are then performed to determine receptor antagonist or agonist interaction. The assays utilized in the instant invention follow the method of Manning et al., J. Pharmacol. Exp. Ther., 237, 504-512 (1986). […] (BRANDEL, Gaithersburg, Md.). The tubes are then rinsed two times with 4 ml ice-cold […] and the filter bound radioactivity is quantitated by liquid scintillation counting. […] The competition and saturation experiments are analyzed using the EBDA program of McPherson. See McPherson, G. A. J Pharmacol. Methods 14, 213-218 (1985).
as §1, with “Cells were” for “Cells are”, “protein were” for “protein are”, “pellet was” for “pellet is”, “homogenate was” for “homogenate is”, “al., 1981)” for “al., J. Pharmacol. and Exper. Ther. 216, 552-557 (1981))”, “determination was” for “determination are”
Binding assays were then performed to determine receptor antagonist or agonist interaction. The assays utilized in the instant invention follow the method of Manning et al., J. Pharmacol. Exp. Ther., 237, 504-512 (1986). […] (BRANDEL, Gaithersburg, Md.). The tubes were rinsed two times with 4 ml ice-cold […] and the filter bound radioactivity was quantitated by liquid scintillation counting. […] The competition and saturation experiments were analyzed using the EBDA program of McPherson. See McPherson, G. A. J Pharmacol. Methods 14, 213-218 (1985).

rat vas deferens = conditions: cited from earlier work
B2 receptors = target: T2, B2 receptors (Homo sapiens, UniProt P30411); conditions: cited from earlier work
T2 sequence (P30411 1-391): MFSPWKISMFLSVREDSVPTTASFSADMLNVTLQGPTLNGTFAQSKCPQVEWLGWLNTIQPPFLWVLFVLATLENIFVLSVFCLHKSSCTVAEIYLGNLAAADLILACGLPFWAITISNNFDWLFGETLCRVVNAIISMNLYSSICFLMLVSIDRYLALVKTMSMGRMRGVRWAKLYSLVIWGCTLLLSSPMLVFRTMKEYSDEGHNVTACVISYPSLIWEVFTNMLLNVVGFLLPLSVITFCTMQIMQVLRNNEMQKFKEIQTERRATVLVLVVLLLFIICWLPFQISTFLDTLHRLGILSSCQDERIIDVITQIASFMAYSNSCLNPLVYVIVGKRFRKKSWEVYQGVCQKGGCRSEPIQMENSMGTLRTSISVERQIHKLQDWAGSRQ

[1] = target: T3, human bradykinin BK-2 receptor protein (human, UniProt P30411 28-391); assay: competition binding with 100 pM [3H]BK, membranes of COS-7 cells expressing the receptor
T3 construct: also called human BK-2 bradykinin receptor; cloned BK receptor
T3 sequence: T1 sequence (P30411 1-364 isoform P30411-2)
Method: (§2) Binding assays are then performed to determine receptor antagonist or agonist interaction. The assays utilized in the instant invention follow the method of Manning et al., *J. Pharmacol. Exp. Ther.*, 237, 504–512 (1986). […] (BRANDEL, Gaithersburg, Md.). The tubes are then rinsed two times with 4 ml ice-cold […] and the filter bound radioactivity is quantitated by liquid scintillation counting. […] The competition and saturation experiments are analyzed using the EBDA program of McPherson. See McPherson, G. A. *J Pharmacol. Methods* 14, 213–218 (1985).
(§3) Binding assays were then performed to determine receptor antagonist or agonist interaction. The assays utilized in the instant invention follow the method of Manning et al., *J. Pharmacol. Exp. Ther.*, 237, 504–512 (1986). […] (BRANDEL, Gaithersburg, Md.). The tubes were rinsed two times with 4 ml ice-cold […] and the filter bound radioactivity was quantitated by liquid scintillation counting. […] The competition and saturation experiments were analyzed using the EBDA program of McPherson. See McPherson, G. A. *J Pharmacol. Methods* 14, 213–218 (1985).

[2] = target: T3, human bradykinin BK-2 receptor protein; assay: competition binding with 100 pM [3H]BK, cloned human BK-2 receptor in membranes
Method: as §2, §3

[3] = target: T4, human bradykinin BK-2 receptor protein (human), P30411; assay: displacement of 100 pM [3H]BK, cloned human BK-2 receptor in membranes
T4 chain: T1 sequence (P30411 1-364 isoform P30411-2)

With `CC[C@H](C)[C@@H]1NC(=O)[C@H](Cc2ccc(O)cc2)NC(=O)[C@@H](N)CSSC[C@@H](C(=O)N2CCC[C@H]2C(=O)N[C@@H](CC(C)C)C(=O)NCC(N)=O)NC(=O)[C@H](CC(N)=O)NC(=O)[C@H](CCC(N)=O)NC1=O` [oxytocin] the “Competition for BK binding” value (human BK-2 receptor) was “No competition”.

In the case of “Des-Arg^9BK (RPPGFSPF) [BK-1 agonist, BK metabolite]”, the “Pre- or postsynaptic BK like responses” value (rat vas deferens) is listed as “inactive”, the “Inhibition of BK binding” value (human BK-2 receptor) is listed as 18% and the “Activity at B2 receptors” value (B2 receptors) is listed as “inactive”.

In the case of `CC[C@H](C)[C@H](NC(=O)[C@H](CC(=O)O)NC(=O)[C@H](CC(C)C)NC(=O)[C@H](Cc1c[nH]cn1)NC(=O)[C@@H]1CSSC[C@H](N)C(=O)N[C@@H](CO)C(=O)N[C@H]2CSSC[C@H](NC(=O)[C@H](CCC(=O)O)NC(=O)[C@H](CCCCN)NC(=O)[C@H](CC(=O)O)NC(=O)[C@H](CCSC)NC(=O)[C@H](CC(C)C)NC(=O)[C@H](CO)NC(=O)[C@H](CO)NC2=O)C(=O)N[C@@H](C(C)C)C(=O)N[C@@H](Cc2ccc(O)cc2)C(=O)N[C@@H](Cc2ccccc2)C(=O)N1)C(=O)N[C@H](C(=O)N[C@@H](Cc1c[nH]c2ccccc12)C(=O)O)[C@@H](C)CC` [endothelin], the “Competition for BK binding” value (human BK-2 receptor) is reported as “No competition”.

With angiotensin II (DRVYIHPF) [peptide] the “Competition for BK binding” value (human BK-2 receptor) was “No competition”.

For `N=C(N)NCCC[C@@H](N)C(=O)N[C@@H](CCCNC(=N)N)C(=O)N1C[C@H](O)C[C@H]1C(=O)N1C[C@H](O)C[C@H]1C(=O)NCC(=O)N[C@@H](Cc1cccs1)C(=O)N[C@@H](CO)C(=O)N[C@H](Cc1ccccc1)C(=O)N[C@@H](Cc1cccs1)C(=O)N[C@@H](CCCNC(=N)N)C(=O)O` [D-Arg^0-[Hyp^2,3,-Thi^5,8D-Phe^7]BK] (H-[dR]R[Hyp][Hyp]G[2Thi]S[dF][2Thi]R-OH; N-terminus and C-terminus assumed), the IC50 (human BK-2 receptor) was 27 nM.

In the case of angiotensin I (DRVYIHPFHL) [peptide], the “Competition for BK binding” value (human BK-2 receptor) is reported as “No competition”.

Molecule `N=C(N)NCCC[C@H](NC(=O)[C@H](Cc1cccs1)NC(=O)[C@@H](Cc1ccccc1)NC(=O)[C@H](CO)NC(=O)[C@H](Cc1cccs1)NC(=O)CNC(=O)[C@@H]1CCCN1C(=O)[C@@H]1CCCN1C(=O)[C@@H](N)CCCNC(=N)N)C(=O)O` [[Thi^5,8,D-Phe^7]BK] (H-RPPG[2Thi]S[dF][2Thi]R-OH; N-terminus and C-terminus assumed) has an IC50 (human BK-2 receptor) of 180 nM.

In the case of des-Arg^9-[Leu^8]-BK [Des-Arg^9, LeuBK], the “Pre- or postsynaptic BK like responses” value (rat vas deferens) is given as “inactive”, the “Antagonism of BK responses in the vas deferens” value (rat vas deferens; incubation at high concentrations) is given as “failed to antagonize” and the “Inhibition of BK binding” value (human BK-2 receptor) is given as 11%.

For met-lys-BK, the “Specificity of binding of BK analogues (rank order)” value (human BK-2 receptor; competition binding, data not shown) was “BK>lys-BK>met-lys-BK”.

B1: met-lys-BK (peptide)
peptide: MKRPPGFSPFR
notes: It is built from its name (Met-Lys + bradykinin)
B1: binds [1].

B2: oxytocin (peptide, UniProt P01178 20-28, looked up)
peptide: CYIQNCPLG
B2: no binding [1].

B3: Hoe 140, D-Arg^0-[Hyp^3,Thi^5,D-Tic^7,Oic^8]BK (peptide)
peptide: RRPPGFSPFR
modifications: numbered on bradykinin: D-Arg at 0; Hyp at 3; Thi at 5; D-Tic at 7; Oic at 8
notes: Synthetic BK-2 antagonist with non-natural residues
In the case of B3, the IC50 [2] is reported as 0.065 nM.

B4: D-Arg^0-[Hyp^2,3,-Thi^5,8D-Phe^7]BK (peptide)
peptide: [dR]R[Hyp][Hyp]G[2Thi]S[dF][2Thi]R
Work on B4 yielded an IC50 [3] of 27 nM.
